Patent US8895526B2, “Identification of RNAI targets and use of RNAI for rational therapy of chemotherapy-resistant leukemia and other cancers” (Cold Spring Harbor Laboratory, priority 2009, dated 2014)

Assays:
[1] = tested on: tet-on competent MLL/AF9+Nras AML; assay: Pooled negative selection RNAi screening (deep sequencing); assay type: cell-based, mouse; conditions: deep sequencing reads, On Dox compared to T0
Source text: (§1) In addition to the analysis of single shRNAs for inhibitory effects in vitro and in vivo, the combination of tet-on competent cancer models and tet-regulatable shRNA expression vectors allowing for monitoring shRNA expression through fluorescent and other reporter genes (e.g. TRMPV and derivates) facilitates pooled shRNA negative selection screening (FIG. 37). In such approaches a pool of over 1,000 shRNAs are retrovirally transduced into tet-on competent cancer models (here MLL/AF9+Nras AML) and selected for shRNA containing cells by either drug selection (e.g. G418) or fluorescence-activated cell sorting (FACS). Selected cell populations harboring a library of shRNAs then can be cultured in the absence or presence of doxycyline (off dox and on dox, respectively) or injected into syngeneic recipient mice that are either treated with doxycyline or left untreated.
(§2) The representation of each shRNA within the pool can be effectively assessed by deep sequencing of shRNA cassettes in a given cell population. For this, genomic DNA is extracted from leukemia cells containing the shRNA pool, and the shRNA guide or passenger strand (21-22 target gene specific nucleotides of the shRNA) by PCR using primers specific for common sequences flanking the gene specific part of the shRNA (e.g. miR30 19 nt loop and miR30 common 3′ sequence). The primers also contain 5′-adapters required for deep sequencing (e.g. for Illumina/Solexa sequencing primers are p5+mir3: 5′-[…]-3′ (SEQ ID NO: 215) and p7+Loop: 5′-[…]-3′ (SEQ ID NO: 216)). Deep sequencing is subsequently performed using a primer binding the flanking nucleotide sequence next to the target gene specific part of the shRNA (for Illumina/Solexa platforms the primer is mir30EcoR1Seq: 5′-TAGCCCCTTGAATTCCGA GGCAGTAGGCA-3′ (SEQ ID NO: 217)).
(§3) The use of shRNA vectors that allow for monitoring of shRNA expression through fluorescent and other reporter genes (e.g. TRMPV) in combination with tet-on competent mouse models facilitates the isolation of pure shRNA expressing cell populations (e.g. by FACS, for TRMPV by sorting of Venus/dsRed double positive cells (FIG. 38). This selection of shRNA expressing cells prior to DNA isolation strongly reduces the background caused by cell populations with insufficient shRNA induction, which are predicted to contain genomic representation of the whole shRNA library without shRNA specific shifts in representation. The final readout is based on the comparison of shRNA representation (i.e. deep sequencing read numbers) before the assay (t0) or from cell populations left without doxycycline treatment (off dox) to those where shRNA were induced and cells subsequently sorted for shRNA expressing cells (on dox). shRNA with inhibitory effects are predicted to loose representation (show less reads) on dox compared to t0 and off dox.
(§4) This pooled is RNAi screening strategy can be applied to rapidly survey inhibitory effects of large pools of shRNAs (˜1000 at a time) in different tet-on competent cancer models and normal control cells (FIG. 39). For example, a pool of 1166 shRNAs targeting 836 predominantly druggable genes associated with MLL fusion proteins in human leukemia and mouse models of MLL/AF9-induced AML (MLL cure library) was analyzed in pooled negative selection screening in tet-on competent MLL/AF9+Nras AML and immortalized murine embryonic fibroblasts (Mef) in parallel. To establish and validate this screening approach, the pool also contained 64 control shRNAs each of which have been previously analyzed for inhibitory effects in both AML cells and Mefs using the same experimental system (FIG. 40).
(§5) After pooling of 1166 experimental and 64 control shRNAs the presence of shRNAs was verified by deep sequencing of shRNAs within the plasmid vector pool (FIG. 41). […]

[2] = tested on: immortalized murine embryonic fibroblasts (Mef); assay: as above; assay type: cell-based; conditions: deep sequencing reads, on dox compared to initial representation
Source text: as §1, §2, §3, §4, §5

Row | Molecule | Fold depletion in AML [1] | Fold depletion in Mef [2]
1 | Pgam1.1811: shRNA, SEQ ID NO: 164 (nucleic acid) TGCTGTTGACAGTGAGCGCAAGGAGTGATGTGCAATACTTTAGTGAAGCCACAGATGTAAAGTATTGCACATCACTCCTTTTGCCTACTGCCTCGGA | 20.18 Fold | 0.17 Fold
2 | Nmur1.7: shRNA, SEQ ID NO: 152 (nucleic acid) TGCTGTTGACAGTGAGCGCCTGCAATATCAGTGAGTTCAATAGTGAAGCCACAGATGTATTGAACTCACTGATATTGCAGATGCCTACTGCCTCGGA | 19.45 Fold | 2.58 Fold
3 | Ctbs.796: shRNA, SEQ ID NO: 110 (nucleic acid) TGCTGTTGACAGTGAGCGCCCCACAGAGCATCTCACTAAATAGTGAAGCCACAGATGTATTTAGTGAGATGCTCTGTGGGTTGCCTACTGCCTCGGA | 19.44 Fold | 0.19 Fold
4 | Rbks.337: shRNA, SEQ ID NO: 172 (nucleic acid) TGCTGTTGACAGTGAGCGAAGCCTCCATAATTGTCAATAATAGTGAAGCCACAGATGTATTATTGACAATTATGGAGGCTGTGCCTACTGCCTCGGA | 17.02 Fold | 1.07 Fold
5 | Lima1.3235: shRNA, SEQ ID NO: 138 (nucleic acid) TGCTGTTGACAGTGAGCGAACGGACATTGTACCCAGATAATAGTGAAGCCACAGATGTATTATCTGGGTACAATGTCCGTCTGCCTACTGCCTCGGA | 16.44 Fold | 0.56 Fold
6 | Casp1.248: shRNA, SEQ ID NO: 100 (nucleic acid) TGCTGTTGACAGTGAGCGCCAGTGAGTATAGGGACAATAATAGTGAAGCCACAGATGTATTATTGTCCCTATACTCACTGATGCCTACTGCCTCGGA | 16.16 Fold | 3.84 Fold
7 | Pdgfrb.1028: shRNA, SEQ ID NO: 163 (nucleic acid) TGCTGTTGACAGTGAGCGAAACGACCATGGCGATGAGAAATAGTGAAGCCACAGATGTATTTCTCATCGCCATGGTCGTTCTGCCTACTGCCTCGGA | 16.16 Fold | 2.15 Fold
8 | Htatip2.575: shRNA, SEQ ID NO: 133 (nucleic acid) TGCTGTTGACAGTGAGCGACAGCAGTTTCTTATACCTACATAGTGAAGCCACAGATGTATGTAGGTATAAGAAACTGCTGGTGCCTACTGCCTCGGA | 15.74 Fold | 1.08 Fold
9 | Wnt10b.1717: shRNA, SEQ ID NO: 190 (nucleic acid) TGCTGTTGACAGTGAGCGCCTCGAATAGACTAAGATGAAATAGTGAAGCCACAGATGTATTTCATCTTAGTCTATTCGAGTTGCCTACTGCCTCGGA | 15.69 Fold | 1.35 Fold
10 | Pde1b.2027: shRNA, SEQ ID NO: 162 (nucleic acid) TGCTGTTGACAGTGAGCGCTGCCTCCAAGTTTCTAAGCAATAGTGAAGCCACAGATGTATTGCTTAGAAACTTGGAGGCAATGCCTACTGCCTCGGA | 15.12 Fold | 1.31 Fold
11 | Cdc42ep1.317: shRNA, SEQ ID NO: 103 (nucleic acid) TGCTGTTGACAGTGAGCGCCTAGCAGTTGTAAGCAATCAATAGTGAAGCCACAGATGTATTGATTGCTTACAACTGCTAGTTGCCTACTGCCTCGGA | 14.91 Fold | 1.47 Fold
12 | Myo7a.618: shRNA, SEQ ID NO: 149 (nucleic acid) TGCTGTTGACAGTGAGCGCCCGCCAGTACACCAACAAGAATAGTGAAGCCACAGATGTATTCTTGTTGGTGTACTGGCGGATGCCTACTGCCTCGGA | 14.79 Fold | 4.42 Fold
13 | Rgs6.896: shRNA, SEQ ID NO: 173 (nucleic acid) TGCTGTTGACAGTGAGCGCCAAGTGAAGATTGACCGGAAATAGTGAAGCCACAGATGTATTTCCGGTCAATCTTCACTTGTTGCCTACTGCCTCGGA | 14.33 Fold | 1.99 Fold
14 | Nrp1.2022: shRNA, SEQ ID NO: 154 (nucleic acid) TGCTGTTGACAGTGAGCGACACAAGGTTCATCAGGATCTATAGTGAAGCCACAGATGTATAGATCCTGATGAACCTTGTGGTGCCTACTGCCTCGGA | 13.60 Fold | 1.80 Fold
15 | Centd3.3993: shRNA, SEQ ID NO: 107 (nucleic acid) TGCTGTTGACAGTGAGCGCCTGGACCACAAGCATCCTTAATAGTGAAGCCACAGATGTATTAAGGATGCTTGTGGTCCAGTTGCCTACTGCCTCGGA | 13.37 Fold | 1.77 Fold
16 | Aspa.996: shRNA, SEQ ID NO: 92 (nucleic acid) TGCTGTTGACAGTGAGCGCATGAAGCTGCATATTATGAAATAGTGAAGCCACAGATGTATTTCATAATATGCAGCTTCATTTGCCTACTGCCTCGGA | 13.25 Fold | 0.68 Fold
17 | S100a9.148: shRNA, SEQ ID NO: 177 (nucleic acid) TGCTGTTGACAGTGAGCGCCAGACAAATGGTGGAAGCACATAGTGAAGCCACAGATGTATGTGCTTCCACCATTTGTCTGATGCCTACTGCCTCGGA | 13.18 Fold | 2.68 Fold
18 | Klrb1b.845: shRNA, SEQ ID NO: 136 (nucleic acid) TGCTGTTGACAGTGAGCGCCAGATTCTTCATTGTATAAATTAGTGAAGCCACAGATGTAATTTATACAATGAAGAATCTGTTGCCTACTGCCTCGGA | 9.74 Fold | 0.43 Fold
19 | Fpr1.375: shRNA, SEQ ID NO: 124 (nucleic acid) TGCTGTTGACAGTGAGCGATTGGTTCATGTGCAAATTCATTAGTGAAGCCACAGATGTAATGAATTTGCACATGAACCAACTGCCTACTGCCTCGGA | 9.66 Fold | 3.07 Fold
20 | Pkm2.2154: shRNA, SEQ ID NO: 166 (nucleic acid) TGCTGTTGACAGTGAGCGCGCCCACCTGAATGTCAATAAATAGTGAAGCCACAGATGTATTTATTGACATTCAGGTGGGCATGCCTACTGCCTCGGA | 9.63 Fold | 1.92 Fold
21 | Tex14.3976: shRNA, SEQ ID NO: 185 (nucleic acid) TGCTGTTGACAGTGAGCGCCAGGAGCTACTTGATGAAATTTAGTGAAGCCACAGATGTAAATTTCATCAAGTAGCTCCTGATGCCTACTGCCTCGGA | 9.60 Fold | 1.90 Fold
22 | Slc11a1.307: shRNA, SEQ ID NO: 178 (nucleic acid) TGCTGTTGACAGTGAGCGCAACATTGAGTCCGACCTTCAATAGTGAAGCCACAGATGTATTGAAGGTCGGACTCAATGTTTTGCCTACTGCCTCGGA | 9.52 Fold | 0.41 Fold
23 | Klf5.581: shRNA, SEQ ID NO: 135 (nucleic acid) TGCTGTTGACAGTGAGCGCTCCGATAATTTCAGAGCATAATAGTGAAGCCACAGATGTATTATGCTCTGAAATTATCGGAATGCCTACTGCCTCGGA | 9.37 Fold | 1.01 Fold
